Assay results taken from publication PMC2133028.
No end group written: not given here.

Biological target: GST-hCASK PDZ fusion protein (residues 489-572) (human)
Assay: pull-down

IC50: 40 to 70 µM
Binder: APTKEFYA-OH [COOH-terminal syndecan-2 peptide (APTKEFYA-COOH)]
